Experimental data as given in FireProtDB (doi:10.1110/ps.8.7.1530).

Conditions: Escherichia coli (strain K12); pH 7.4; 22 °C; GdnHCl; Fluorescence; Sodium phosphate 20 mM; reversible: yes; whole UniProt chain shown

B1: PTS system mannose-specific EIIAB component wild type, P69797 (protein)
chain: MTIAIVIGTHGWAAEQLLKTAEMLLGEQENVGWIDFVPGENAETLIEKYNAQLAKLDTTKGVLFLVDTWGGSPFNAASRIVVDKEHYEVIAGVNIPMLVETLMARDDDPSFDELVALAVETGREGVKALKAKPVEKAAPAPAAAAPKAAPTPAKPMGPNDYMVIGLARIDDRLIHGQVATRWTKETNVSRIIVVSDEVAADTVRKTLLTQVAPPGVTAHVVDVAKMIRVYNNPKYAGERVMLLFTNPTDVERLVEGGVKITSVNVGGMAFRQGKTQVNNAVSVDEKDIEAFKKLNARGIELEVRKVSTDPKLKMMDLISKIDK
With B1 the “denaturant midpoint (higher = more stable)” value was 2.3 M and the unfolding free energy was 10.5 kcal/mol.
